Measurements published in article PMC11432197 (International Journal of Molecular Sciences, 2024).

Target: T1, recombinant mTOR kinase domain (amino acid 1363-2549) (UniProt P42345 1363-2549)
T1 construct: also called mTOR kinase domain protein; mTOR (in vitro); source: bought: Sigma-Aldrich (Cat #14-770)
Test: co-IP; in vitro: ETV7 and mTOR incubated overnight at 4 °C in the presence or absence of Ndel-FRB and/or 120 aa-LBE; ETV7 IPs immunoblotted for mTOR, ETV7 and Flag
Conditions: both partners purified

T1 sequence (P42345 1363-2549): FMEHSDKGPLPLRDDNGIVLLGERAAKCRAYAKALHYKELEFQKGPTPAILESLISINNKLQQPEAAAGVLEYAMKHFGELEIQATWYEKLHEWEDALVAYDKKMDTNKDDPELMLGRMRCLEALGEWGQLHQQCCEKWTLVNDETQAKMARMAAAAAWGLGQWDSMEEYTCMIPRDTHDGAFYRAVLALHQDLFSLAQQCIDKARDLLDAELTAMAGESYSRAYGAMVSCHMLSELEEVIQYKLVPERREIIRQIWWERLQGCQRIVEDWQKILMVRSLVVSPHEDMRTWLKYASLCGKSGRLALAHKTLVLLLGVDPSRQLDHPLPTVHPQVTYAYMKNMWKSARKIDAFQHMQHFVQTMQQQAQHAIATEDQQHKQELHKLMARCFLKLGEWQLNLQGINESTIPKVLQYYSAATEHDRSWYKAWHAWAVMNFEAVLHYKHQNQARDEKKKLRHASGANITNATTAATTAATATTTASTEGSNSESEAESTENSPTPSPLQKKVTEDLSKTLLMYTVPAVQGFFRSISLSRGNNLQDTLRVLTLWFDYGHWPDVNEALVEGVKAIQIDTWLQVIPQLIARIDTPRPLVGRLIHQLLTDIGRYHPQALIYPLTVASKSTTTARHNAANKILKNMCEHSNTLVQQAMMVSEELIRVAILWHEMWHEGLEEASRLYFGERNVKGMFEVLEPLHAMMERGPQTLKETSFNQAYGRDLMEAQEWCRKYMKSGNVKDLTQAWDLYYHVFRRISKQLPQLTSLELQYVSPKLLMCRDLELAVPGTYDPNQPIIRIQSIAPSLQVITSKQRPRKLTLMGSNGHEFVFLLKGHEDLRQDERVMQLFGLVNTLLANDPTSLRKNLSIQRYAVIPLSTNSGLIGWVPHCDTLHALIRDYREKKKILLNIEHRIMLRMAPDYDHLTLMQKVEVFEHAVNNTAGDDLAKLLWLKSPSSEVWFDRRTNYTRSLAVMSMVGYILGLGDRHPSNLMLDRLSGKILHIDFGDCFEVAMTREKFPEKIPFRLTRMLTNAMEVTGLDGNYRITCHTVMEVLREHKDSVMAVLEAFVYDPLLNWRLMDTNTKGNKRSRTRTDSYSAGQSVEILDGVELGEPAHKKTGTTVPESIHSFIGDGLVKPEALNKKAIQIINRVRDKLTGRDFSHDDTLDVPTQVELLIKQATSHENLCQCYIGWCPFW

B1: ETV7 protein (recombinant) (natural protein)
chain: MQEGELAISPISPVAAMPPLGTHVQARCEAQINLLGEGGICKLPGRLRIQPALWSREDVLHWLRWAEQEYSLPCTAEHGFEMNGRALCILTKDDFRHRAPSSGDVLYELLQYIKTQRRALVCGPFFGGIFRLKTPTQHSPVPPEEVTGPSQMDTRRGHLLQPPDPGLTSNFGHLDDPGLARWTPGKEESLNLCHCAELGCRTQGVCSFPAMPQAPIDGRIADCRLLWDYVYQLLLDTRYEPYIKWEDKDAKIFRVVDPNGLARLWGNHKNRVNMTYEKMSRALRHYYKLNIIKKEPGQKLLFRFLKTPGKMVQDKHSHLEPLESQEQDRIEFKDKRPEISP
notes: ETV7, bought recombinant protein; also called ETV7 (in vitro); purified ETV7; source: bought: Origene (Cat #TP307742)
B1: binds.
